The source of these data is article PMC3204800.

Data set [1] concerns the target Third plant homeodomain (PHD3) finger of MLL, residues 1565-1627 (human) (UniProt Q03164). The experiment in a line: ITC. A general note: In ITC the heat of successive injections is recorded.
Data set [2] has as its target Cyp33 RRM domain (human, UniProt Q9UNP9 1-90). The experiment in a line: NMR.

Sequence of Third plant homeodomain (PHD3) finger of MLL, residues 1565-1627 (human) (Q03164 1565-1627): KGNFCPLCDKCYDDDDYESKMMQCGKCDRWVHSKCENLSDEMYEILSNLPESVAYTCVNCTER
Sequence of Cyp33 RRM domain (Q9UNP9 1-90): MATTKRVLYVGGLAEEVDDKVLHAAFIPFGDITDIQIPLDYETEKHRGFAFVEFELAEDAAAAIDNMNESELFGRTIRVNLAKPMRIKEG

As for “Cyp33 RRM domain F49A mutant (from UniProt Q9UNP9 1-90) (domain or fragment)”, the fold reduction of affinity against the wild type in data set [1] was 35 fold.

In turn, “Cyp33 RRM domain L39A mutant (from UniProt Q9UNP9 1-90) (domain or fragment)” yielded a fold reduction of affinity against the wild type in data set [1] of 10 fold.

A word on the Kd: it is a measure of binding affinity in units of concentration. Read a high Kd as weaker binding. Turning to “RRM domain of human Cyclophilin 33 (Cyp33), residues 1-90 (from UniProt Q9UNP9 1-90) (domain or fragment)”, in data set [1], the Kd worked out at 1.9 µM and the dH is -10 kcal.

For the molecule AAUAAA (ssRNA) [AAUAAA RNA], the affinity in data set [2], expressed as Kd, was 198 ± 11 µM.
